Experimental findings from patent US20180086841A1 (Merck Sharp & Dohme, published 2018) are described below.

What is called EC50 is the concentration needed to bring the measured effect to its halfway point. Lower therefore signals higher potency in that assay. What is called Kd is the concentration at which binding is half-saturated.

Experiment [1] has as its target T1, human CD27 (human, UniProt P26842 21-260).
T1 construct: also called hCD27; HsCD27
Nature of the experiment: flow cytometry MFI, CD8+ T cells of human PBMC, N=2 donors. Background: In flow cytometry, cells or beads pass a laser one at a time.
Protocol: (§1) Labeled cells were washed by re-suspending them in 150 ul of staining buffer (SB) followed by centrifugation at 300 g for 5 minutes. Cells were then resuspended in 100 ul of SB containing primary anti-CD27 antibodies at various concentrations, incubated in the dark at 4° C. for 30 minutes, followed by washing and centrifugation steps as previously described. […] Cells were incubated for 30 minutes at 4° C. in the dark, followed by washing and centrifugation steps. Next, cells were stained with a cocktail of phenotypic antibodies for surface markers (CD3, CD4, CD8, CD11b) and incubated for 30 minutes at 4° C. in the dark, followed by washing and centrifugation steps. […] Samples were acquired in a LSR-Fortessa flow cytometer (BD Biosciences) using the high throughput sampler and data analyzed by FlowJo software (Tree Star Inc).

Experiment [2] has as its target T1, human CD27. Nature of the experiment: flow cytometry on primary T cells.
Experiment [3] concerns the target T1, human CD27. Nature of the experiment: cell ELISA on human CD27 CHOK1 cells, hIgG1. For orientation: ELISA stands for enzyme-linked immunosorbent assay.
Protocol: (§2) Purified antibodies were assayed for binding to human CD27 expressing CHOK1 cells using a cell-based ELISA format. Human CD27 expressing CHOK1 cells were plated in 96-well tissue-culture plates in 50 μl of DMEM/F12, 10% BCS (bovine calf serum) (CHO-K1 media). Cells were plated at either 2×10⁴ cells/well two days prior to the assay or 4×10⁴ cells/well one day prior to the assay. Media was removed from the wells prior to the assay followed by incubation of mAb in 100 μL fresh culture medium at a starting concentration of 10 μg/mL and 8 step 1:5 serial dilutions (hIgG4 antibodies) or starting concentration of 50 μg/mL and 8 step 1:5 serial dilutions (hIgG1 antibodies). The antibodies were incubated for 30-60 minutes at room temperature and washed 3 times with PBS/0.05% Tween 20 using a cell ELISA washing protocol on the Biotek EL405x Select CW plate washer.
Experiment [4] concerns the target T1, human CD27. Description: cell ELISA on transfected CHO cells.
Protocol: as §2
The target in experiment [5] is T1, human CD27. Nature of the experiment: flow cytometry MFI, CD4+ T cells of human PBMC, N=2 donors.
Protocol: as §1
For experiment [6], the target named is T2, His9G-tagged cynomolgus CD27 recombinant protein (cynomolgus, limits assumed).
T2 construct: In-house, transient transfection of HEK293 cells; also called Cyno CD27/His
T2 chain: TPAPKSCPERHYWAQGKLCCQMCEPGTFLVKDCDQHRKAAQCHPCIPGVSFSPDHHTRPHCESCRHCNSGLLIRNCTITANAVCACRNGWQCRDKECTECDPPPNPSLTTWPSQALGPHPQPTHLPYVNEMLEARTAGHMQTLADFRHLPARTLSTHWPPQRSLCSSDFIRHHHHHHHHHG
Nature of the experiment: SPR Biacore 4000, antibody captured on anti-human Fc, His9G-tagged CD27 injected, 1:1 fit.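 Further: Double-referenced SPR (blank anti-Fc surface and buffer injection subtracted), KD derived from association and dissociation rate constants, with human and cynomolgus CD27 as analytes.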 For orientation: SPR reads the build-up and loss of mass on a sensor chip optically.
Description: (§3) Flow cell spots modified with anti-human Fc antibody but lacking CD27 antibodies were used as reference. […] The chip surface was regenerated with a 30 second injection of 3M MgCl₂ after each injection cycle.
(§4) Data were double referenced by subtracting the response from a blank surface and that from a buffer injection and used for analyzing the rate constant of association (kₐ) and dissociation (kd), and the equilibrium dissociation constant KD. The resulting data sets were fitted with a Langmuir 1:1 binding model using the Biacore 4000 BIAevaluation software, version 1.0 (GE/Biacore).

Experiment [7] deals with T3, His9G-tagged human CD27 recombinant protein (human, UniProt P26842 21-191).
T3 construct: In-house, transient transfection of HEK293 cells; also called Human CD27/His
The experiment is described as above.
Description: as §3, §4

The target in experiment [8] is T1, human CD27. Nature of the experiment: cell ELISA on human CD27 CHOK1 cells, hIgG4.
Protocol: as §2

B1: hCD27.131A VH9VL9 huIgG1 (antibody, V domains shown)
VH: EIQLVQSGAEVKKPGASVKVSCKASGYTFTNYGMNWVRQAPGQGLKWMGWINTNTGEPTYAEEFKGRFTFTLDTSASTAYMELSSLRSEDTAVYYCAREGDAMDYWGQGTTVTVSS
VL: DIQLTQSPSTLSASVGDRVTITCSASSSVSYMHWYQQKPGKAPKRWIYDTSKLASGVPARFSGSGSGTDYTLTISSLQPEDFATYYCQQWNSYPFTFGQGTKLEIK
On to B1, for which the results for the EC50 in experiment [1], in experiment [3] and in experiment [5] were 0.0721 nM, 0.111 nM and 0.0774 nM, respectively. Moreover, the “EC50 relative to 131AVH6VL6-hIgG1” value in experiment [2] is ≤ 10 % above the EC50 of 131AVH6VL6-hIgG1. Moreover, the “fold EC50 against 131AVH6VL6-hIgG1” value in experiment [4] was ≤ 2 fold. Besides, the values for the Kd in experiment [6] and in experiment [7] were 105 nM and 62.2 nM, respectively.

B2: hCD27.131A VH9VL9 huIgG4 (antibody, V domains shown)
VH: EIQLVQSGAEVKKPGASVKVSCKASGYTFTNYGMNWVRQAPGQGLKWMGWINTNTGEPTYAEEFKGRFTFTLDTSASTAYMELSSLRSEDTAVYYCAREGDAMDYWGQGTTVTVSS
VL: DIQLTQSPSTLSASVGDRVTITCSASSSVSYMHWYQQKPGKAPKRWIYDTSKLASGVPARFSGSGSGTDYTLTISSLQPEDFATYYCQQWNSYPFTFGQGTKLEIK
For the molecule B2, the “fold EC50 against 131AVH6VL6-hIgG1” value in experiment [4] is ≤ 2 fold. The values for the dissociation constant (Kd) in experiment [6] and in experiment [7] were 72.9 nM and 104 nM, respectively. This molecule also showed an EC50 in experiment [8] of 0.13 nM.

B3: hCD27.131A VH6VL8 huIgG1 (antibody, V domains shown)
VH: EIQLVQSGAEVKKPGASVKVSCKASGYTFTNYGMNWVKQAPGQGLKWMGWINTNTGEPTYAEEFKGRFTFTLDTSISTAYMELSSLRSEDTAVYYCAREGDAMDYWGQGTTVTVSS
VL: EIVLTQSPATLSASPGERVTLSCSASSSVSYMHWYQQKPGQAPKRWIYDTSKLASGVPARFSGSGSGTDYSLTISSMEPEDFAVYYCQQWNSYPFTFGQGTKLEIK
Consider B3, for which the 50% effective concentration (EC50) in experiment [1] was 0.124 nM; in experiment [3], 0.131 nM; in experiment [5] it was 0.126 nM. Also, the “EC50 relative to 131AVH6VL6-hIgG1” value in experiment [2] was ≤ 10 % above the EC50 of 131AVH6VL6-hIgG1. For the same molecule, the “fold EC50 against 131AVH6VL6-hIgG1” value in experiment [4] was ≤ 2 fold. Also, the Kd in experiment [6] is 56.5 nM; in experiment [7], 68.2 nM.

B4: hCD27.131A VH6VL7 huIgG1 (antibody, V domains shown)
VH: EIQLVQSGAEVKKPGASVKVSCKASGYTFTNYGMNWVKQAPGQGLKWMGWINTNTGEPTYAEEFKGRFTFTLDTSISTAYMELSSLRSEDTAVYYCAREGDAMDYWGQGTTVTVSS
VL: EIVLTQSPATLSLSPGERATLSCSASSSVSYMHWYQQKPGQAPKRWIYDTSKLASGVPARFSGSGSGTSYSLTISSLEPEDFATYYCQQWNSYPFTFGQGTKLEIK
In the case of B4, the concentration for a half-maximal effect (EC50) is 0.11 nM in experiment [1], 0.13 nM in experiment [3] and 0.123 nM in experiment [5]. Besides, in experiment [2], the “EC50 relative to 131AVH6VL6-hIgG1” value was ≤ 10 % above the EC50 of 131AVH6VL6-hIgG1. The “fold EC50 against 131AVH6VL6-hIgG1” value in experiment [4] was ≤ 2 fold. The dissociation constant Kd in experiment [6] was 41.9 nM; in experiment [7], 71.7 nM.

B5: hCD27.131A VH7VL6 huIgG1 (antibody, V domains shown)
VH: EIQLVQSGAEVKKPGASVKISCKASGYTFTNYGMNWVKQAPGQGLKWMGWINTNTGEPTYAEEFKGRFTFTLDTSATTAYLEISSLRSEDTAVYYCAREGDAMDYWGQGTTVTVSS
VL: EIVLTQSPATLSLSPGERATLSCSASSSVSYMHWYQQKPGQAPKRWIYDTSKLASGVPARFSGSGSGTDYSLTISSLEPEDFAVYYCQQWNSYPFTFGQGTKLEIK
For B5, the figures for the EC50 in experiment [1], in experiment [3] and in experiment [5] were 0.127 nM, 0.162 nM and 0.128 nM, respectively. The “EC50 relative to 131AVH6VL6-hIgG1” value in experiment [2] is ≤ 10 % above the EC50 of 131AVH6VL6-hIgG1. In addition, the “fold EC50 against 131AVH6VL6-hIgG1” value in experiment [4] was ≤ 2 fold. Moreover, the dissociation constant Kd in experiment [6] stood at 34.8 nM; in experiment [7] it was 41.3 nM.
